In assay [1] the target is Toc90 (Chlamydomonas reinhardtii). Nature of the assay: cryo-EM structure.
The target in assay [2] is Toc75 (Chlamydomonas reinhardtii). The experiment in a line: cryo-EM structure.

The term stoichiometry N denotes the number of molecules, sites or subunits per partner or assembly. In assay [1], Toc75 (natural protein) returned a stoichiometry N of 1.

B1: Toc34 (natural protein)
chain: MAQPPRPAEEYDDDVQEDEDELKEGELDDDESHEAASEGGEAAAGDEEAEDDEQDEEDGDEDSQPWAGLNRLPERDDMLDILNELRAEGRKQLTVLLLGKSSVGKSSLINSLLGEAVVRVQAFKLQADTDITTTVVRQVAVGNSEVDGFRLKLIDTCGLEDPEAGDTVNLGALSKIAEDVRGVGIDVVLYCDRLDLYRVDPLDKAIIDAISSTFGRGIWRRTVVALTHANLVQTPPGTDYDSFVNGRVRLIRGAVRGPLFFRPSLPVALVENSETCPVSSESGFRVLPDGEPWLVALVSQLVDMAAARRRPYKYHPRLSSKPSHRFRWLLPVAIAAEVLFYRRFLHPRLDDNQRRVEREEERVWALRGQQRRALGLHRPHRPDKDAAWRLEQMYDDD
The molecule B1 returned a stoichiometry N in assay [2] of 1.

(Values after paper doi:10.1101/2022.11.20.517165.)
